For data set [1], the target named is Indicator molecule containing the cleavable sequence GPQGIFGQ with a terminal biotin group connected via a polyethylene glycol spacer/linker (intact).
In data set [2] the target is T1, Cyclised HNE substrate lacking the tyrosine residue (CQESIRLPGC attached to the scaffold).
T1 chain: CQESIRLPGC

Data set [3] has as its target T2, Cyclised MOL488 peptide (YCQESIRLPGC attached to the scaffold derived from 1,3-dibromomethylbenzene).
T2 chain: YCQESIRLPGC

B1: MMP 7 (Enzo) (protein)
chain: YSLFPNSPKWTSKVVTYRIVSYTRDLPHITVDRLVSKALNMWGKEIPLHFRKVVWGTADIMIGFARGAHGDSYPFDGPGNTLAHAFAPGTGLGGDAHFDEDERWTDGSSLGINFLYAATHELGHSLGMGHSSDPNAVMYPTYGNGDPQNFKLSQDDIKGIQKLYGKRSNSRKK
In turn, B1 came in with a Reader value (lateral flow, CF1522 gold) at 0.5 µg/ml MMP in data set [1] of 373 reader units.

B2: MMP 11 (Enzo) (protein)
chain: FVLSGGRWEKTDLTYRILRFPWQLVQEQVRQTMAEALKVWSDVTPLTFTEVHEGRADIMIDFARYWHGDDLPFDGPGGILAHAFFPKTHREGDVHFDYDETWTIGDDQGTDLLQVAAHEFGHVLGLQHTTAAKALMSAFYTFRYPLSLSPDDCRGVQHLYGQPWPTVTSRTPA
On to B2, for which the Reader value (lateral flow, CF1522 gold) at 0.5 µg/ml MMP in data set [1] is 280 reader units.

B3: MMP 12 (Enzo) (protein)
chain: FREMPGGPVWRKHYITYRINNYTPDMNREDVDYAIRKAFQVWSNVTPLKFSKINTGMADILVVFARGAHGDFHAFDGKGGILAHAFGPGSGIGGDAHFDEDEFWTTHSGGTNLFLTAVHEIGHSLGLGHSSDPKAVMFPTYKYVDINTFRLSADDIRGIQSLYG
Turning to B3, the Reader value (lateral flow, CF1522 gold) at 0.5 µg/ml MMP in data set [1] stood at 1250 reader units.

B4: Human Neutrophil elastase (Leeblo Solutions inc.) (protein)
chain: IVGGRRARPHAWPFMVSLQLRGGHFCGATLIAPNFVMSAAHCVANVNVRAVRVVLGAHNLSRREPTRQVFAVQRIFENGYDPVNLLNDIVILQLNGSATINANVQVAQLPAQGRRLGNGVQCLAMGWGLLGRNRGIASVLQELNVTVVTSLCRRSNVCTLVRGRQAGVCFGDSGSPLVCNGLIHGIASFVRGGCASGLYPDAFAPVAQFVNWIDSIIQ
Take B4: in data set [2], the “HPLC analysis of elastase digestion” value is “a single cleavage product results from HNE activity on the peptide”; the “mass spectrometry of substrate and hydrolysed product” value was “the substrate is cleaved at a single site and that the substrate otherwise remains intact”. For the same protein, the “preparative enzymatic cleavage followed by HPLC and mass spectrometry” value in data set [3] is “A new product peak evolved over time”.

B5: MMP 1 (Enzo) (protein)
chain: FVLTEGNPRWEQTHLTYRIENYTPDLPRADVDHAIEKAFQLWSNVTPLTFTKVSEGQADIMISFVRGDHRDNSPFDGPGGNLAHAFQPGPGIGGDAHFDEDERWTNNFREYNLHRVAAHELGHSLGLSHSTDIGALMYPSYTFSGDVQLAQDDIDGIQAIYGRSQNPVQP
On to B5, for which, in data set [1], the Reader value (lateral flow, CF1522 gold) at 0.5 µg/ml MMP was determined as 478 reader units.

Source of the values: patent publication US20160238596.
